The values below come from patent US20220380471A1 (US Dept. of Health and Human Services, published 2022).

Assay [1] deals with T1, human B7H3 (human, UniProt Q5ZPR3 29-466, limits assumed).
T1 construct: also called human B7H3 protein
T1 sequence (looked up): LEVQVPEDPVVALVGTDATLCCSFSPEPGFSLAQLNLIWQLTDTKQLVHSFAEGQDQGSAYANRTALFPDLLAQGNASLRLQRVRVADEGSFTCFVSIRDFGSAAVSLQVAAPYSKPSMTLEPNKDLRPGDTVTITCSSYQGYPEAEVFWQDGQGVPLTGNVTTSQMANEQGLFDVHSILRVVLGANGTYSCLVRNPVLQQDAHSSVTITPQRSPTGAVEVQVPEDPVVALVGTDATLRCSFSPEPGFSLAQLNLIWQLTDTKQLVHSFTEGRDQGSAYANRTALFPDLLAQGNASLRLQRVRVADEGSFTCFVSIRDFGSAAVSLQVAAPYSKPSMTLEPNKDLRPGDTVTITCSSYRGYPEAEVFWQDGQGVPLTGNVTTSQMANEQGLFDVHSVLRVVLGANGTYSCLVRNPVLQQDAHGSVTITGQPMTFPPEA
Description: ELISA; row Human; well 2 of 3. Summed up:
(§1)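 Phage panning on recombinant B7H3-Fc yielded camel VHH nanobodies, which were then purified. Their binding was tested by ELISA against immobilised recombinant proteins, including B7H3 fusion proteins and proteins other than B7H3, and recorded as the ELISA signal.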
(ELISA stands for enzyme-linked immunosorbent assay.)

Assay [2] concerns the target T2, hB7H3-His (human, UniProt Q5ZPR3 29-461, limits assumed).
T2 construct: not shown: His tag
T2 sequence (looked up): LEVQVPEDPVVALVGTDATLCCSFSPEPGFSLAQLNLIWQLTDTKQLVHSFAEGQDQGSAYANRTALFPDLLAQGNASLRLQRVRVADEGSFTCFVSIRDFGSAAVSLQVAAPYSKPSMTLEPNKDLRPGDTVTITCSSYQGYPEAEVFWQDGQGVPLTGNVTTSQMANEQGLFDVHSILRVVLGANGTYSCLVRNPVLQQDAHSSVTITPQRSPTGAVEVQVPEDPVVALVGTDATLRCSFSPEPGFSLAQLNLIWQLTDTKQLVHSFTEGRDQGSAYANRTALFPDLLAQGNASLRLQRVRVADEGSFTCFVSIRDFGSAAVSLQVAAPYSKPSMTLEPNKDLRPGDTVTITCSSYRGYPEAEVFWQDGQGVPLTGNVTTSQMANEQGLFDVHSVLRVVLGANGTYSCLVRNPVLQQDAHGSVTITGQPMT
In words: ELISA; row B7H3-his; well 2 of 3. Summed up: as §1

The target in assay [3] is T3, Irrelevant antigen.
T3 construct: negative control
Description: ELISA; row Irrelevant antigen; well 3 of 3. Summed up: as §1

Assay [4] addresses PD-L1. Description: ELISA; row PDL1-Fc; well 3 of 3. The gist of the method: as §1
Assay [5] deals with B7H3 R&D. In words: ELISA; row B7H3 R&D; well 1 of 3. The gist of the method:
as §1

In assay [6] the target is T3, Irrelevant antigen. In words: ELISA; row Irrelevant antigen; well 2 of 3. The gist of the method: as §1
Assay [7] deals with B7H3 R&D. Description: ELISA; row B7H3 R&D; well 2 of 3. Summed up: as §1
Assay [8] addresses T4, monkey B7H3-His (monkey).
T4 chain: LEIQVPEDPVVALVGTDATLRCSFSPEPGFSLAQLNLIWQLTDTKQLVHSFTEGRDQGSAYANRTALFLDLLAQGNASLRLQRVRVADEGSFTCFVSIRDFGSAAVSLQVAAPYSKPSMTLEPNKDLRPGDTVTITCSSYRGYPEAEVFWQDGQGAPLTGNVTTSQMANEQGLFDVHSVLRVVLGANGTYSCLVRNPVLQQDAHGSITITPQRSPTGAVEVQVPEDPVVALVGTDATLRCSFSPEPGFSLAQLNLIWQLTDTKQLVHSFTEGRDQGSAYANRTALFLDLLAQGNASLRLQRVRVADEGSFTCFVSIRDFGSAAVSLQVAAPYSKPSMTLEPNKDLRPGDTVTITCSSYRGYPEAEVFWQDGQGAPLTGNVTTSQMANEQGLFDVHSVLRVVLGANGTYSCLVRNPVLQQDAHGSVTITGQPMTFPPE
Description: ELISA; row Monkey; well 3 of 3. Summed up: as §1

The target in assay [9] is T5, rat B7H3-His (rat, UniProt Q7TPB4 29-244, limits assumed).
T5 construct: not shown: His tag
T5 sequence (looked up): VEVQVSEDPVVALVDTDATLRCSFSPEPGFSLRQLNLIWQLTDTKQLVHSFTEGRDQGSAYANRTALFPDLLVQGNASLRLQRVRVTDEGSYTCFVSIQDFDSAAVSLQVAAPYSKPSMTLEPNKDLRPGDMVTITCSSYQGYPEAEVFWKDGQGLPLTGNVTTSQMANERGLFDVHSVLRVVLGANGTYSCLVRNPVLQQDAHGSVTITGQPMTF
In words: ELISA, purified VHH. Summed up: as §1

The target of assay [10] is T2, hB7H3-His. In words: ELISA, purified VHH. Summed up:
as §1

In assay [11] the target is T4, monkey B7H3-His. Description: ELISA, purified VHH. The gist of the method:
as §1

Assay [12] deals with T6, recombinant human B7H3-Fc protein (human, UniProt Q5ZPR3 29-466, limits assumed).
T6 construct: 154 kDa non-reduced, 77 kDa reduced; also called hB7H3-Fc; not shown: Fc part
T6 sequence (looked up): T1 sequence (looked up)
In words: ELISA, purified VHH. The gist of the method:
as §1

Assay [13] concerns the target Non-relevant antigen. In words: ELISA, purified VHH. The gist of the method: as §1
For assay [14], the target named is T2, hB7H3-His. Description: ELISA; row B7H3-his; well 3 of 3. Summed up: as §1
The target in assay [15] is HN3-Fc. Description: ELISA; row HN3-Fc; well 3 of 3. The gist of the method: as §1
For assay [16], the target named is T6, recombinant human B7H3-Fc protein. In words: ELISA; row B7H3-Fc; well 1 of 3. The gist of the method:
as §1

Assay [17] concerns the target T2, hB7H3-His. Description: ELISA; row B7H3-his; well 1 of 3. Summed up:
as §1

The target in assay [18] is PD-L1. Description: ELISA; row PDL1-Fc; well 2 of 3. Summed up: as §1
Chain of PD-L1 (Q9NZQ7 whole entry): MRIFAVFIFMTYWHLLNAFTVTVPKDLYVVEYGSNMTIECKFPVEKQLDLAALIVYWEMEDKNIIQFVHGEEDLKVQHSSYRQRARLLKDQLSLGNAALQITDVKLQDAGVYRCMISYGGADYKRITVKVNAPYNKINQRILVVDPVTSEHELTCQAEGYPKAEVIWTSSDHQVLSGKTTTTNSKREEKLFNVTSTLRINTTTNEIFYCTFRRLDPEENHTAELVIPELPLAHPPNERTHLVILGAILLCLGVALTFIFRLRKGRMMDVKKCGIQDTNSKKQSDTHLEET

B1: RWB12 (VHH)
VHH: QVQLVESGGGSVQVGGSLRLSCAASGFTYNSYSVGWFRQAPGKEREGVAAINSGGSSTYYAASVKGRFTISRDNAKNTVYLQMNSLKPEDTAMYYCAARSPSPLTFQTRTLREDSYNYWGQGTQVTVSS
notes: Camel VHH; tag not described; also called camel antibody RWB12
As for B1, the “ELISA reading (name not given)” value in assay [1] came out at 0.21; in assay [2] it was 0.0595; in [3], 0.0853; in assay [4] it was 0.0624; in assay [5] it was 0.0582; in assay [6] it was 0.0864. Besides, the “ELISA reading (name not given)” value stood at 0.0559 in assay [7]; 0.178 in assay [8]; 0.0946 in assay [14]; 0.048 in [15]; 0.878 in assay [16]; 0.0603 in assay [17]. For the same molecule, in assay [18], the “ELISA reading (name not given)” value came out at 0.0685. Also, the ELISA signal turned out to be 0.0574 in [9]; 0.686 in assay [10]; 0.164 in assay [11]; 0.568 in assay [12]; 0.0495 in assay [13].

B2: RWG4 (VHH)
VHH: QVQLVQSGGGLVQPGGSLRLSCAASGFTFSVYWFYWVRQAPRQGLEWVSTIASNGSTYYSDSVKGRFTISRDNAKNTVYLQMNSLKPEDTAVYYCVSDPDYYSDYERAYKFWAQGTQVTVSS
notes: Camel VHH; tag not described; also called camel antibody RWG4
On to B2, for which the ELISA signal in assay [9] was 1.5; in [10], 2.55; in assay [11], 1.81; in assay [12], 2.54; in assay [13], 0.0541.

B3: RWC4 (VHH)
VHH: EVQLVESGGGSVQAGGSLRLSCVASEDSTSAMCMGWFRQAPGKEREGVACINPTGEVTWYGDSVKGRFTISRDTVKKIVYLQMNSLKPEDTAMYYCAARVTYGGDWSTDTDYEYWGQGTQVTVSS
notes: Camel VHH; tag not described; also called camel antibody RWC4
As to B3, the “ELISA reading (name not given)” value in assay [1] was found to be 0.979; in assay [2] it was 0.0879; in assay [3], 0.102; in assay [4] it was 0.0613; in assay [5], 0.132; in assay [6] it was 0.0888. Besides, the “ELISA reading (name not given)” value in assay [7] came to 0.151; in [8] it was 1.04; in assay [14], 0.0811; in [15], 0.0467; in assay [16], 2.01; in assay [17] it was 0.114. Further, the “ELISA reading (name not given)” value in assay [18] is 0.0627. The ELISA signal in [10] came out at 2.44; in assay [11] it was 0.288; in assay [12], 2.02; in assay [13] it was 0.0719.

B4: RWG8 (VHH)
VHH: DVQLVESGGGLVQPGGSLRLSCAASGFTFSRYWMGWFRQAPGKGVEWVSTINSGGGSTYYADSVKGRFTISRDNAKNTLYLQLNNLKTEDTAMYYCAKEQWRTGSRGQGTQVTVSS
notes: Camel VHH; tag not described; also called camel antibody RWG8
As for B4, the “ELISA reading (name not given)” value in assay [1] was found to be 0.147; in [2] it was 0.0686; in assay [3], 0.114; in [4], 0.0999; in assay [5], 0.0696; in assay [6], 0.098. Besides, the “ELISA reading (name not given)” value came to 0.0632 in [7]; 0.195 in assay [8]; 0.0636 in [14]; 0.0535 in assay [15]; 1.97 in [16]; 0.0693 in assay [17]. In addition, the “ELISA reading (name not given)” value in [18] was 0.0633. Moreover, the ELISA signal in assay [9] came out at 0.0696; in [10] it was 1.04; in assay [11], 0.117; in assay [12], 0.641; in assay [13] it was 0.0562.
